# Experimental data reported in PMC3248755.
# B1: human dimethylarginine dimethylaminohydrolase-1 (DDAH-1) (Homo sapiens) (protein)
# chain: MAGLGHPAAFGRATHAVVRALPESLGQHALRSAKGEEVDVARAERQHQLYVGVLGSKLGLQVVELPADESLPDCVFVEDVAVVCEETALITRPGAPSRRKEVDMMKEALEKLQLNIVEMKDENATLDGGDVLFTGREFFVGLSKRTNQRGAEILADTFKDYAVSTVPVADGLHLKSFCSMAGPNLIAIGSSESAQKALKIMQQMSDHRYDKLTVPDDIAANCIYLNIPNKGHVLLHRTPEEYPESAKVYEKLKDHMLIPVSMSELEKVDGLLTCCSVLINKKVDS
# Substrate: CSC(=N)NCCC[C@H](N)C(=O)O
# Experiment: steady-state kinetics
# Format: biochemical, Homo sapiens
protein,measurement,value
B1,Km,0.37 ± 0.03 µM
